From PMC4949553

Tests used:
[1] = western blot, soluble plus insoluble intracellular fractions; conditions: glycan lost; control: G392E NS
[2] = non-denaturing PAGE and western blot, COS-7; conditions: glycan lost
[3] = western densitometry, insoluble fraction, MG132 treatment; conditions: glycan lost; control: G392E NS
[4] = polymer sandwich ELISA of cell lysates; conditions: glycan lost
[5] = 35S pulse-chase, total intracellular NS up to 24 h; conditions: glycan lost; control: G392E NS
[6] = SDS/PAGE western blot densitometry of insoluble fraction; conditions: glycan lost; control: wild type NS

Row | Protein | localisation_or_trafficking [1] | oligomerisation ([2]; control: G392E NS) | other: insoluble NS accumulating under proteasome inhibition [3] | oligomerisation ([4]; control: G392E NS) | degradation_or_half_life [5] | oligomerisation ([2]; control: wild type NS) | oligomerisation ([4]; control: wild type NS) | other: amount in insoluble intracellular fraction [6]
1 | G392E neuroserpin (G392E NS): G392E/N321A (protein) parent chain: MAFLGLFSLLVLQSMATGATFPEEAIADLSVNMYNRLRATGEDENILFSPLSIALAMGMMELGAQGSTQKEIRHSMGYDSLKNGEEFSFLKEFSNMVTAKESQYVMKIANSLFVQNGFHVNEEFLQMMKKYFNAAVNHVDFSQNVAVANYINKWVENNTNNLVKDLVSPRDFDAATYLALINAVYFKGNWKSQFRPENTRTFSFTKDDESEVQIPMMYQQGEFYYGEFSDGSNEAGGIYQVLEIPYEGDEISMMLVLSRQEVPLATLEPLVKAQLVEEWANSVKKQKVEVYLPRFTVEQEIDLKDVLKALGITEIFIKDANLTGLSDNKEIFLSKAIHKSFLEVNEEGSEAAAVSGMIAISRMAVLYPQVIVDHPFFFLIRNRRTGTILFMERVMHPETMNTSGHDFEEL | increases | increases | increases | increases |  |  |  | 
2 | G392E neuroserpin (G392E NS): G392E/N401A (protein) parent chain: MAFLGLFSLLVLQSMATGATFPEEAIADLSVNMYNRLRATGEDENILFSPLSIALAMGMMELGAQGSTQKEIRHSMGYDSLKNGEEFSFLKEFSNMVTAKESQYVMKIANSLFVQNGFHVNEEFLQMMKKYFNAAVNHVDFSQNVAVANYINKWVENNTNNLVKDLVSPRDFDAATYLALINAVYFKGNWKSQFRPENTRTFSFTKDDESEVQIPMMYQQGEFYYGEFSDGSNEAGGIYQVLEIPYEGDEISMMLVLSRQEVPLATLEPLVKAQLVEEWANSVKKQKVEVYLPRFTVEQEIDLKDVLKALGITEIFIKDANLTGLSDNKEIFLSKAIHKSFLEVNEEGSEAAAVSGMIAISRMAVLYPQVIVDHPFFFLIRNRRTGTILFMERVMHPETMNTSGHDFEEL | increases | increases | increases | increases | no change |  |  | 
3 | neuroserpin (NS), wild type: N157A/N321A (protein) parent chain: MAFLGLFSLLVLQSMATGATFPEEAIADLSVNMYNRLRATGEDENILFSPLSIALAMGMMELGAQGSTQKEIRHSMGYDSLKNGEEFSFLKEFSNMVTAKESQYVMKIANSLFVQNGFHVNEEFLQMMKKYFNAAVNHVDFSQNVAVANYINKWVENNTNNLVKDLVSPRDFDAATYLALINAVYFKGNWKSQFRPENTRTFSFTKDDESEVQIPMMYQQGEFYYGEFSDGSNEAGGIYQVLEIPYEGDEISMMLVLSRQEVPLATLEPLVKAQLVEEWANSVKKQKVEVYLPRFTVEQEIDLKDVLKALGITEIFIKDANLTGLSDNKEIFLSKAIHKSFLEVNEEGSEAAAVSGMIAISRMAVLYPQVIVDHPFFFLIRNRRTGTILFMGRVMHPETMNTSGHDFEEL |  |  |  |  |  | increases | increases | increases
4 | neuroserpin (NS), wild type: N157A (protein) parent chain: MAFLGLFSLLVLQSMATGATFPEEAIADLSVNMYNRLRATGEDENILFSPLSIALAMGMMELGAQGSTQKEIRHSMGYDSLKNGEEFSFLKEFSNMVTAKESQYVMKIANSLFVQNGFHVNEEFLQMMKKYFNAAVNHVDFSQNVAVANYINKWVENNTNNLVKDLVSPRDFDAATYLALINAVYFKGNWKSQFRPENTRTFSFTKDDESEVQIPMMYQQGEFYYGEFSDGSNEAGGIYQVLEIPYEGDEISMMLVLSRQEVPLATLEPLVKAQLVEEWANSVKKQKVEVYLPRFTVEQEIDLKDVLKALGITEIFIKDANLTGLSDNKEIFLSKAIHKSFLEVNEEGSEAAAVSGMIAISRMAVLYPQVIVDHPFFFLIRNRRTGTILFMGRVMHPETMNTSGHDFEEL |  |  |  |  |  | increases | increases | 
5 | neuroserpin (NS), wild type: N321A (protein) parent chain: MAFLGLFSLLVLQSMATGATFPEEAIADLSVNMYNRLRATGEDENILFSPLSIALAMGMMELGAQGSTQKEIRHSMGYDSLKNGEEFSFLKEFSNMVTAKESQYVMKIANSLFVQNGFHVNEEFLQMMKKYFNAAVNHVDFSQNVAVANYINKWVENNTNNLVKDLVSPRDFDAATYLALINAVYFKGNWKSQFRPENTRTFSFTKDDESEVQIPMMYQQGEFYYGEFSDGSNEAGGIYQVLEIPYEGDEISMMLVLSRQEVPLATLEPLVKAQLVEEWANSVKKQKVEVYLPRFTVEQEIDLKDVLKALGITEIFIKDANLTGLSDNKEIFLSKAIHKSFLEVNEEGSEAAAVSGMIAISRMAVLYPQVIVDHPFFFLIRNRRTGTILFMGRVMHPETMNTSGHDFEEL |  |  |  |  |  | increases | increases | 
6 | G392E neuroserpin (G392E NS): G392E/N157A (protein) parent chain: MAFLGLFSLLVLQSMATGATFPEEAIADLSVNMYNRLRATGEDENILFSPLSIALAMGMMELGAQGSTQKEIRHSMGYDSLKNGEEFSFLKEFSNMVTAKESQYVMKIANSLFVQNGFHVNEEFLQMMKKYFNAAVNHVDFSQNVAVANYINKWVENNTNNLVKDLVSPRDFDAATYLALINAVYFKGNWKSQFRPENTRTFSFTKDDESEVQIPMMYQQGEFYYGEFSDGSNEAGGIYQVLEIPYEGDEISMMLVLSRQEVPLATLEPLVKAQLVEEWANSVKKQKVEVYLPRFTVEQEIDLKDVLKALGITEIFIKDANLTGLSDNKEIFLSKAIHKSFLEVNEEGSEAAAVSGMIAISRMAVLYPQVIVDHPFFFLIRNRRTGTILFMERVMHPETMNTSGHDFEEL | increases | increases |  |  |  |  |  | 
